Experimental data from patent US20240417436A1 (BRIGHT PEAK THERAPEUTICS, published 2024).
Bridges are numbered along the chain shown (N, C = ends). Primed or numbered codes have the meaning given here. [ ]: non-standard residue; d: D form. Ygp = O-(8x polyethylene glycol-amino)-tyrosine; Yn3 = O-(9x polyethylene glycol-azido)-tyrosine; cleavable moiety = not defined here; PEG4′ = 4x polyethylene glycol; PEG9″ = 9x polyethylene glycol; hSer = N[C@@H](CCO)C(=O)O; Nle = CCCC[C@H](N)C(=O)O

T1: IL-2 receptor βγ complex on pan T cells (human, UniProt P14784 27-551; P31785 23-369)
T1 sequence (looked up) 1: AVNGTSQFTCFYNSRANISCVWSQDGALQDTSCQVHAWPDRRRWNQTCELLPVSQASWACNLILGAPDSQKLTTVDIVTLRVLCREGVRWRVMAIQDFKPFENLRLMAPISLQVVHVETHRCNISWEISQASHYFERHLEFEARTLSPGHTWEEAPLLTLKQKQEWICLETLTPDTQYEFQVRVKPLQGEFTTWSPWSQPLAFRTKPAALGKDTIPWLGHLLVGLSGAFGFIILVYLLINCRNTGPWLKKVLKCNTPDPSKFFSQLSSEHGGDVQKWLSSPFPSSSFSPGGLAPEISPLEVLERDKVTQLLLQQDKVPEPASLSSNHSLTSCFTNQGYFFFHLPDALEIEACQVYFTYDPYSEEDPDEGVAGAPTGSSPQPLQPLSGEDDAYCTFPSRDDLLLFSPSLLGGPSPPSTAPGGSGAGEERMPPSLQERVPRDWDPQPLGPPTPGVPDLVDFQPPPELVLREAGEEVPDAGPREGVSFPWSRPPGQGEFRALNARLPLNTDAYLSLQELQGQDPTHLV
T1 sequence (looked up) 2: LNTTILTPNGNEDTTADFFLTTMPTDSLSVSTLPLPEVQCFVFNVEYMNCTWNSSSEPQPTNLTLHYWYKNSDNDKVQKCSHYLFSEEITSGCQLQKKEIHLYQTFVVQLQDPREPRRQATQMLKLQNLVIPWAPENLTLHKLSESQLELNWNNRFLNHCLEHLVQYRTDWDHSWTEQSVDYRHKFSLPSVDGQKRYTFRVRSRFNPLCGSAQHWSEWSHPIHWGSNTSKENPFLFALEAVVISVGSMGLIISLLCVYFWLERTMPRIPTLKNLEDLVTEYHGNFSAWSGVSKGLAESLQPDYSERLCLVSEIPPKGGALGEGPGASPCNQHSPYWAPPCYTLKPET

B1: CMP-305 (ligand)
chain: APTSSSTKKTQLQLEHLLLDLQKILNGINNYKNPKLTR[Nle]L[hSer][Yn3]KF[Ygp][Nle]PKKATELKHLQCLEEELKPLEEVL[hSer]LAQSKNFHLRPRDLISNINVIVLELKGSETTF[hSer]CEYADETATIVEFLNRWITFSQSIISTLT
modifications: linker 15-23 via cleavable moiety; ends not checked; also: cleavable peptide of the bridge not defined
B2: CMP-302, MMP2 cleaved (ligand)
chain: GPLGLAGAPTSSSTKKTQLQLEHLLLDLQEILNGINNYKNPKLTR[Nle]L[hSer][Yn3]KF[Ygp][Nle]PKKATELKHLQCLEEELKPLEEVL[hSer]LAQSKNFHLRPRDLISNINVIVLELKGSETTF[hSer]CEYADETATIVEFLNRWITFSQSIISTLT
modifications: ends and bridges not checked; also: cleaved by MMP2 within the cleavable peptide, macrocycle opened, cut site not given here
B3: CMP-304 (ligand)
chain: PLGLAGAPTSSSTKKTQLQLEHLLLDLQEILNGINNYKNPKLTR[Nle]L[hSer][Yn3]KF[Ygp][Nle]PKKATELKHLQCLEEELKPLEEVL[hSer]LAQSKNFHLRPRDLISNINVIVLELKGSETTF[hSer]CEYADETATIVEFLNRWITFSQSIISTLT
modifications: linker N-29 via PEG9″; ends not checked
B4: CMP-302 (ligand)
chain: GPLGLAGAPTSSSTKKTQLQLEHLLLDLQEILNGINNYKNPKLTR[Nle]L[hSer][Yn3]KF[Ygp][Nle]PKKATELKHLQCLEEELKPLEEVL[hSer]LAQSKNFHLRPRDLISNINVIVLELKGSETTF[hSer]CEYADETATIVEFLNRWITFSQSIISTLT
modifications: lactam N-30; ends not checked
B5: CMP-303, MMP2 cleaved (ligand)
chain: PLGLAGAPTSSSTKKTQLQLEHLLLDLQEILNGINNYKNPKLTR[Nle]L[hSer][Yn3]KF[Ygp][Nle]PKKATELKHLQCLEEELKPLEEVL[hSer]LAQSKNFHLRPRDLISNINVIVLELKGSETTF[hSer]CEYADETATIVEFLNRWITFSQSIISTLT
modifications: ends and bridges not checked; also: cleaved by MMP2 within the cleavable peptide, macrocycle opened, cut site not given here, PEG4 linker
B6: CMP-304, MMP2 cleaved (ligand)
chain: PLGLAGAPTSSSTKKTQLQLEHLLLDLQEILNGINNYKNPKLTR[Nle]L[hSer][Yn3]KF[Ygp][Nle]PKKATELKHLQCLEEELKPLEEVL[hSer]LAQSKNFHLRPRDLISNINVIVLELKGSETTF[hSer]CEYADETATIVEFLNRWITFSQSIISTLT
modifications: ends and bridges not checked; also: cleaved by MMP2 within the cleavable peptide, macrocycle opened, cut site not given here, PEG9 linker
B7: CMP-303 (ligand)
chain: PLGLAGAPTSSSTKKTQLQLEHLLLDLQEILNGINNYKNPKLTR[Nle]L[hSer][Yn3]KF[Ygp][Nle]PKKATELKHLQCLEEELKPLEEVL[hSer]LAQSKNFHLRPRDLISNINVIVLELKGSETTF[hSer]CEYADETATIVEFLNRWITFSQSIISTLT
modifications: linker N-29 via PEG4′; ends not checked
B8: CMP-305, MMP2 cleaved (ligand)
chain: APTSSSTKKTQLQLEHLLLDLQKILNGINNYKNPKLTR[Nle]L[hSer][Yn3]KF[Ygp][Nle]PKKATELKHLQCLEEELKPLEEVL[hSer]LAQSKNFHLRPRDLISNINVIVLELKGSETTF[hSer]CEYADETATIVEFLNRWITFSQSIISTLT
modifications: ends and bridges not checked; also: cleavable moiety between Glu15 and Lys23 side chains cut by MMP2, macrocycle opened, cut site not given here
B9: CMP-301, MMP2 cleaved (ligand)
chain: APTSSSTKKTQLQLEHLLLDLQEILNGINNYKNPKLTR[Nle]L[hSer][Yn3]KF[Ygp][Nle]PKKATELKHLQCLEEELKPLEEVL[hSer]LAQSKNFHLRPRDLISNINVIVLELKGSETTF[hSer]CEYADETATIVEFLNRWITFSQSIISTLT
modifications: ends and bridges not checked; also: cleavable moiety between Glu23 side chain and N-terminus cut by MMP2, macrocycle opened, cut site not given here

What follows are binders tested against T1, IL-2 receptor βγ complex on pan T cells (assay: cell-based or functional assay).

| Average EC50, pSTAT5 assay in pan T cells, intact molecule [nM] | Average EC50, pSTAT5 assay in pan T cells, MMP2 cleaved molecule [nM] | Binder |
| --- | --- | --- |
| 128 | – | B1 |
| – | 1.43 | B2 |
| 110 | – | B3 |
| 63.4 | – | B4 |
| – | 4.4 | B5 |
| – | 8.61 | B6 |
| 97.9 | – | B7 |
| – | 3.26 | B8 |
| – | 0.883 | B9 |
